This is an account of results in PMC10761686.

The target of test [1] is actin from rabbit skeletal muscle, as filaments (F-actin) capped at their barbed ends by gelsolin (rabbit) (UniProt P68135).
The target is the same in test [2]. The source holds these as a separate data set.

Take “tropomodulin 1 (TMOD1) with the patient variant p.R189W, purified recombinant human (from UniProt P28289-1 1-359) (natural protein)”: in test [1], the inhibition of pyrene-actin depolymerisation from pointed ends against TMOD1^wt, long filaments (1:100 gelsolin to actin), without TPM1 (fold weaker than TMOD1^wt) is 2 and the inhibition of pyrene-actin depolymerisation from pointed ends against TMOD1^wt, short filaments (1:10 gelsolin to actin), without TPM1 (fold weaker than TMOD1^wt) is 5. In test [2], this substance gave a capping activity against TMOD1^wt: inhibition of pyrene-actin polymerisation at pointed ends of long filaments (1:100 gelsolin to actin), without TPM1 (fold weaker than TMOD1^wt) of 2 and a capping activity against TMOD1^wt: inhibition of pyrene-actin polymerisation at pointed ends of short filaments (1:10 gelsolin to actin), without TPM1 (fold weaker than TMOD1^wt) of 2.
